10 molecules from patent publication US20230348852A1, “METHODS AND COMPOSITIONS FOR OCULAR CELL THERAPY” (NOVARTIS AG, priority 2020, published 2023) can be followed below.

Data set [1] deals with B2M. The data set is described as follows: sgRNA screening for B2M knockout in LSCs (nucleofection, FACS). The format is cell-based, human. The settings on record: Cas9 protein SEQ ID NO: 106, LSCs at passage 3, FACS after around 3 days. The procedure:
Cells were cultured under these conditions for 24-48 hours at 37° C. in 5% CO2.
LSCs were nuclofected with selected gRNAs (Table 6) followed by FACS analysis / MACS separation.
After scraping the cells, the reaction was stopped by using cell culture medium containing 10% Serum and transferred to a falcon tube. After counting cells using Vi-cell 300′000 cells were prepared per reaction by transferring 300′000 cells in single tubes and centrifuged at 1000 rpm for 5 min. The supernatant was aspirated using manually pipetting to avoid cell loss and the cells were resuspended in the Stem cell nucleofector solution II (Lonza, Cat #VPH-5022). Resuspend cells in nucleofector solution immediately before adding the Cas9 RNP:sgRNA mixture. To obtain the nucleofection mixture, 5 µg high concentrated (≥5 µg/µl) Cas9 protein of SEQ ID NO: 106 (volume = 0.78 µl) was mixed with 19.5 µg sgRNA of Table 6 (volume = 12.2 µl) and incubated for 20 min at room temperature. […] The Cas9 protein-guideRNA complex was added to the cell suspension and transferred to the electroporation cuvette immediately. Cells were transfected using the nucelofector device (Lonza, Amaxa Nucleofector II) and program A023. After nucleofection cells were transferred from cuvette to one well of a 24 well synthemax coated plate containing pre-warmed LSC medium including 3 µM LATS compound and 10 µM Rock inhibitor Y-27632 (Nature 1997, vol. 389, pp. 990-994). Incubate LSCs in a 5% CO2 incubator for around 3 days until cells are 90% confluent.
LSCs were treated with TryLE®Express Enzym (ThermoFisher, Cat #12605010) for 15 minutes in 5% CO2 at 37° C. After scraping the cells, the reaction was stopped by using cell culture medium containing 10% Serum and transferred to a falcon tube for a centrifugation step (1000 rpm, 5 minutes). After aspirating the medium cells were resuspended in 200 µl FACS buffer (PBS/10%FBS).
To analyze the expression of B2M and HLA-ABC, 5 µl APC mouse anti-human β2-microglobulin antibody (Biolegend, Cat#316312) and 20 µl PE mouse anti-human HLA-ABC antibody (BD Bioscience, Cat # 560168) were added to the cell suspension and incubated for 30 minutes on ice.
Cells were washed 3 times after antibody labelling with FACS buffer and resuspended in 200 µl in FACS buffer (depending on the cell number).
FACS data were analyzed using BD FACSDiva software and FlowJo software.

In data set [2] the test system is genomic DNA purified from male human peripheral blood mononuclear cells. The data set is described as follows: Biochemical assay for potential off-target genomic sites cleaved by Cas9 and B2M guides. Conditions: number of potential off-target sites, guide concentration 64 nM. How it is done: A biochemical method (See, e.g., Cameron et al., Nature Methods. 6, 600-606; 2017) was used to determine potential off-target genomic sites cleaved by Cas9 and selected B2M guides. Guides showing B2M indel activity were tested for potential off-target genomic cleavage sites with this assay. […] The number of potential off-target sites detected using a guide concentration of 64 nM in the biochemical assay are shown in Table 10. As a result of this analysis, several gRNAs were selected for analysis of potential off-target activity in limbal stem cells.

The next data set relates to human B2M. As to the kind of experiment: CRISPR/Cas9-mediated deletion of B2M in HEK293 (lipofection, FACS). Type of data set: cell-based. The settings on record: lipofection of tracrRNA, gRNA and Cas9 mRNA; FACS after 72 h. How it is done:
One day before transfection, 500′000 HEK293cells (ATCC, Manassas, VA) were plated in a 35 mm dish and grown in DMEM/10%FBS. The following day, cells were transfected with a mixture of tracrRNA-gRNA-Cas9 mRNA. A stock of 10 micromolar was prepared resuspending 20 nanomoles of gRNA and 20 nanomoles tracrRNA in 2000 microlitre 10 millimolar Tris buffer pH7.4 each.
The mixture was added drop wise to the culture dish in 2.5 ml DMEM/10%FBS medium. The transfection reagent alone represented the transfection negative control.
After 6 h incubation in 5% CO2 at 37° C. medium was replaced with fresh DMEM/10%FBS medium. After 72 h in a 5% CO2 incubator cells were prepared for FACS analysis. FACS analysis: HEK293 cells were treated with Accutase (ThermoFisher, Cat # A1110501) for 20 minutes in 5% CO2 at 37° C. The reaction was stopped by using cell culture medium containing 10% Serum and transferred to a falcon tube for a centrifugation step (1000 rpm, 5 minutes). After aspirating the medium cells were resuspended in 200 microlitre FACS buffer (PBS/10%FBS).
To analyze the expression of B2M and HLA-ABC, 5 microlitre APC mouse anti-human β2-microglobulin antibody (Biolegend, Cat #316312) and 20 microlitre PE mouse anti-human HLA-ABC antibody (BD Bioscience, Cat # 560168) were added to the cell suspension and incubated for 30 minutes on ice. Cells were washed 3 times after antibody labelling with FACS buffer and resuspended in 500 microlitre in FACS buffer.
Each sample was transferred to one well of a round bottom 96 well plate and analyzed on a BD LSRFortessa X-20 device. FACS data were analyzed using BD FACSDiva software.

Data set [3] concerns B2M. As to the kind of experiment: Targeted PCR and NGS (amplicon sequencing) of on-target and off-target sites in genome-edited LSCs. Conditions: for validated indels for off-target activity in LSCs: amplicon sequencing of potential off-target loci; for Number of sites positive for off-target activity in LSCs: of the potential off-target loci sequenced; for B2M purified rhAmpSeq indel: purified (B2M negative) LSC populations. Type of data set: cell-based, human. How it is done:
Potential CRISPR/Cas9-mediated cutting sites identified above were evaluated using targeted PCR and NGS in genome-edited expanded LSCs.
Selected sgRNAs (SEQ ID NO: 120, 162, 166, 167, 171, and 175) were further analyzed by amplicon sequencing in edited and non-edited cells. Primers flanking the potential off-target sites for each guide were used to detect indels by NGS analysis in edited LSCs and non-edited peripheral blood mononuclear cells. Sites that had either (1) a difference in mean indel percentage between edited and unedited cells greater than 0.5%; or (2) a p value less than 0.05 between edited and unedited indel were further analyzed. NGS sequence reads for such sites were assessed for characteristic indel patterns near the putative Cas9 cut site. Based on the results, we could assess the specificity of gRNAs and their suitability for therapeutic applications.

B1: CR000443: gRNA targeting human B2M; targeting domain SEQ ID NO: 135; sgRNA SEQ ID NO: 172 (nucleic acid)
guide: CGCGAGCACAGCUAAGGCCAGUUUUAGAGCUAGAAAUAGCAAGUUAAAAUAAGGCUAGUCCGUUAUCAACUUGAAAAAGUGGCACCGAGUCGGUGCUUUU
modifications: listed as RNA, chemistry not given here
With B1, in the data set with B2M [1], the “B2M knockout efficiency in LSCs after nucleofection” value (from here on “B2M knockout efficiency in LSCs”) is listed as 25%. In addition, in data set [2], the “off-target Site_ Count” value is 117.

B2: 6-HEYJA000001: gRNA targeting human B2M; targeting domain SEQ ID NO: 113; sgRNA SEQ ID NO: 164 (nucleic acid)
guide: GGCCGAGAUGUCUCGCUCCGGUUUUAGAGCUAGAAAUAGCAAGUUAAAAUAAGGCUAGUCCGUUAUCAACUUGAAAAAGUGGCACCGAGUCGGUGCUUUU
modifications: listed as RNA, chemistry not given here
Regarding B2, the “B2M knockout efficiency in LSCs” value with B2M [1] is on record as 33%. Besides, in the data set with human B2M, the “B2M knockout efficiency in HEK293” value is on record as 47%. Moreover, the “off-target Site_ Count” value in data set [2] was determined as 8.

B3: CR000453: gRNA targeting human B2M; targeting domain SEQ ID NO: 137; sgRNA SEQ ID NO: 174 (nucleic acid)
guide: CACAGCCCAAGAUAGUUAAGGUUUUAGAGCUAGAAAUAGCAAGUUAAAAUAAGGCUAGUCCGUUAUCAACUUGAAAAAGUGGCACCGAGUCGGUGCUUUU
modifications: listed as RNA, chemistry not given here
Regarding B3, the “B2M knockout efficiency in LSCs” value with B2M [1] is 5%. In addition, the “off-target Site_ Count” value in data set [2] stood at 82.

B4: 4-CR004366: gRNA targeting human B2M; targeting domain SEQ ID NO: 111; sgRNA SEQ ID NO: 162; from Dharmacon (nucleic acid)
guide: CAGUAAGUCAACUUCAAUGUGUUUUAGAGCUAGAAAUAGCAAGUUAAAAUAAGGCUAGUCCGUUAUCAACUUGAAAAAGUGGCACCGAGUCGGUGCUUUU
modifications: listed as RNA, chemistry not given here
notes: gRNA targeting human B2M; from Dharmacon
B4: the “B2M knockout efficiency in LSCs” value in the data set with B2M [1] came to 22%. Moreover, in the data set on human B2M, the “B2M knockout efficiency in HEK293” value was determined as 48%. Further, in the data set with B2M [3], the “validated indels for off-target activity in LSCs” value (“validated indels” for short) was “zero”, the “Number of sites positive for off-target activity in LSCs” value (“Number of sites positive” below) is given as 0 of 88 and the “B2M purified rhAmpSeq indel” value is given as 99.85±0.21%. In the data set on B2M [3] (listed as SEQ ID NO: 162), the “Number of sites positive” value is given as “no predicted sites tested positive for off-target activity” and the “B2M purified rhAmpSeq indel” value is given as ~ 99%. The “off-target Site_ Count” value in data set [2] turned out to be 92.

B5: 8-HEYJA000004: gRNA targeting human B2M; targeting domain SEQ ID NO: 115; sgRNA SEQ ID NO: 166 (nucleic acid)
guide: ACUCACGCUGGAUAGCCUCCGUUUUAGAGCUAGAAAUAGCAAGUUAAAAUAAGGCUAGUCCGUUAUCAACUUGAAAAAGUGGCACCGAGUCGGUGCUUUU
modifications: listed as RNA, chemistry not given here
Regarding B5, the “B2M knockout efficiency in LSCs” value in the data set on B2M [1] came out at 22%. Further, the “B2M knockout efficiency in HEK293” value with human B2M was 65%. In the data set with B2M [3], the “validated indels” value is listed as “zero”, the “Number of sites positive” value is recorded as 0 of 60 and the “B2M purified rhAmpSeq indel” value is given as 99.95±0.07%. In addition, in the data set with B2M [3] (listed as SEQ ID NO: 166), the “Number of sites positive” value is “no predicted sites tested positive for off-target activity” and the “B2M purified rhAmpSeq indel” value was ~ 99%. For the same molecule, in data set [2], the “off-target Site_ Count” value was 62.

B6: CR000446: gRNA targeting human B2M; targeting domain SEQ ID NO: 136; sgRNA SEQ ID NO: 173 (nucleic acid)
guide: AGGGUAGGAGAGACUCACGCGUUUUAGAGCUAGAAAUAGCAAGUUAAAAUAAGGCUAGUCCGUUAUCAACUUGAAAAAGUGGCACCGAGUCGGUGCUUUU
modifications: listed as RNA, chemistry not given here
Turning to B6, the “B2M knockout efficiency in LSCs” value with B2M [1] is 27%. For the same molecule, the “off-target Site_ Count” value in data set [2] turned out to be 98.

B7: CR000455: gRNA targeting human B2M; targeting domain SEQ ID NO: 138; sgRNA SEQ ID NO: 175 (nucleic acid)
guide: UUACCCCACUUAACUAUCUUGUUUUAGAGCUAGAAAUAGCAAGUUAAAAUAAGGCUAGUCCGUUAUCAACUUGAAAAAGUGGCACCGAGUCGGUGCUUUU
modifications: listed as RNA, chemistry not given here
For B7, the “B2M knockout efficiency in LSCs” value in the data set with B2M [1] was found to be 24%. For the same molecule, in the data set with B2M [3], the “validated indels” value is listed as “zero”, the “Number of sites positive” value is listed as 0 of 46 and the “B2M purified rhAmpSeq indel” value is 99.33±0.32%. In the data set on B2M [3] (listed as SEQ ID NO: 175), the “Number of sites positive” value was “no predicted sites tested positive for off-target activity” and the “B2M purified rhAmpSeq indel” value is ~ 99%. In data set [2], the “off-target Site_ Count” value was 48.

B8: CR000442: gRNA targeting human B2M; targeting domain SEQ ID NO: 134; sgRNA SEQ ID NO: 171 (nucleic acid)
guide: GGCCACGGAGCGAGACAUCUGUUUUAGAGCUAGAAAUAGCAAGUUAAAAUAAGGCUAGUCCGUUAUCAACUUGAAAAAGUGGCACCGAGUCGGUGCUUUU
modifications: listed as RNA, chemistry not given here
As for B8, the “B2M knockout efficiency in LSCs” value in the data set on B2M [1] is on record as 62%. Also, in the data set on B2M [3], the “validated indels” value was “zero”, the “Number of sites positive” value is reported as 0 of 28 and the “B2M purified rhAmpSeq indel” value stood at 99.10±0.26%. In the data set with B2M [3] (listed as SEQ ID NO: 171), the “Number of sites positive” value is reported as “no predicted sites tested positive for off-target activity” and the “B2M purified rhAmpSeq indel” value is ~ 99%. Besides, in data set [2], the “off-target Site_ Count” value was found to be 29.

B9: 7-HEYJA000003: gRNA targeting human B2M; targeting domain SEQ ID NO: 114; sgRNA SEQ ID NO: 165 (nucleic acid)
guide: CUCGCGCUACUCUCUCUUUCGUUUUAGAGCUAGAAAUAGCAAGUUAAAAUAAGGCUAGUCCGUUAUCAACUUGAAAAAGUGGCACCGAGUCGGUGCUUUU
modifications: listed as RNA, chemistry not given here
For the molecule B9, the “B2M knockout efficiency in LSCs” value in the data set with B2M [1] is 8%. In the data set on human B2M, the “B2M knockout efficiency in HEK293” value turned out to be 37%.

B10: CR000456: gRNA targeting human B2M; targeting domain SEQ ID NO: 139; sgRNA SEQ ID NO: 176 (nucleic acid)
guide: CUUACCCCACUUAACUAUCUGUUUUAGAGCUAGAAAUAGCAAGUUAAAAUAAGGCUAGUCCGUUAUCAACUUGAAAAAGUGGCACCGAGUCGGUGCUUUU
modifications: listed as RNA, chemistry not given here
Turning to B10, in the data set on B2M [1], the “B2M knockout efficiency in LSCs” value came to 3%. Besides, the “off-target Site_ Count” value in data set [2] is reported as 66.
